{
  "source": "the nanobody polyreactivity screen of Harvey et al. (2022)",
  "data": [
    {"assay": "yeast display, Sf9 membrane polyspecificity reagent, FACS + sequencing; frameworks hold sequencing errors", "method_in_brief": "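Galactose-induced (36–48 hours) yeast carrying a synthetic nanobody display library were exposed to 10% biotinylated, detergent-solubilized Sf9 membrane reagent at 4 °C for 1 hour. FACS followed streptavidin microbead enrichment, using low and high (top ~1%) gates for expression (anti-HA) and reagent binding (streptavidin). Colony PCR, MiSeq 2 × 250 sequencing and CDR-length filtering followed. Labels for polyreactivity reflect the gate of origin.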", "values": [
      {"sequence": "QVQLVESGGGLVQAGGSLRLSCAASGYIFGQYAMGWYRQAPGKERELVADITRGGDTYYADSVKGRFTISRDNAKNTVYLQMNSLKPEDTAVYYCAADSFYWAWQYDYWGQGTQVTVSS", "polyreactivity (PSR sort gate)": "high polyreactivity"},
      {"sequence": "QVQLVESGGGLVQAGGSLRLSCAASGYIFGSYAMGWYRQAPGKERELVASITRVDSTNYADSVKGRFTISRDNAKNTVYLQMNSLKAEDTAVYYCAADITTPAYATYDYWGQGTQVTVSS", "polyreactivity (PSR sort gate)": "low polyreactivity"},
      {"sequence": "QVQLVESGGGLVQAGGSLRLSCAASGYIFGSYTMGWYRQAPAKERELVAGISRRGGGTYYADSVKGRFTISRDNAKNTVYLQMNSLKPEDTAVYYCAAEVITIGLYRYGYWGQGTQVTVSS", "polyreactivity (PSR sort gate)": "high polyreactivity"},
      {"sequence": "QVQLVESGGGLVQAGGSLRLSCAASGYIFGVYAMGWYRQAPGKERELVAAISYGVGSTYYADSVKVRFTISRDNAKNTVYFQMNSLKPEDTAVYYCAADVFFYVYEAYLLYYWGQGSQVTVSS", "polyreactivity (PSR sort gate)": "low polyreactivity"},
      {"sequence": "QVQLVESGGGLVQAGGSLRLSCAASGYIFGWYAMGWYRQAPGKERELVATIDWSGDSTYYADSVKGRFTISRDNAKNTVYLQMNSLKPEDTAVYYCAVGYSYYPSDEFDYWGQGTQVTVSS", "polyreactivity (PSR sort gate)": "low polyreactivity"},
      {"sequence": "QVQLVESGGGLVQAGGSLRLSCAASGYIFIGYAMGWYRQAPGKERELVTYADSVKGRFTISRDNAKNTVYFQMNSRKPEDTAVYYCNKVPRRFSGLDENYWGQGTQVTVSS", "polyreactivity (PSR sort gate)": "low polyreactivity"},
      {"sequence": "QVQLVESGGGLVQAGGSLRLSCAASGYIFKYNAMGWYIQAPGKERELVAAISGRGGSTYYADSVKGRFTISRDNAKNTVYLQMNSLKPEDTAVYYCNADYQARRYNYWGQGTQVTVSS", "polyreactivity (PSR sort gate)": "high polyreactivity"},
      {"sequence": "QVQLVESGGGLVQAGGSLRLSCAASGYIFKYYAMGWYRQAPGKERELVAAISRSGGSTYYADSVKGRFTISRDNAKNTVYLQMNSLNPEDTAVYYCAADSYYYQGYRRYNYDYWGQGTQVTVSS", "polyreactivity (PSR sort gate)": "high polyreactivity"},
      {"sequence": "QVQLVESGGGLVQAGGSLRLSCAASGYIFLGNAMGWYRQAPGKERELVAAISRSGGSTYYADSVKGRFTISRDNAQNTVYLQMNSLKPEDTAVYYCNRDRQKIGYTYKYDYWGQGTQVTVSS", "polyreactivity (PSR sort gate)": "high polyreactivity"},
      {"sequence": "QVQLVESGGGLVQAGGSLRLSCAASGYIFNLNAMGWYRQAPGKERELVAAITRSGGSTYYADSVKGRFTISRDNAKNTVYLQMNSQKPEDTAVYYCAARGPYYRPWYKYDYWGQGTQVTVSS", "polyreactivity (PSR sort gate)": "high polyreactivity"},
      {"sequence": "QVQLVESGGGLVQAGGSLRLSCAASGYIFPGNAMGWYRQAPGKERELVATISGSAGSTSYADSVKGRFTISRDNAKNTVYLQMNSLKPEDTAVYYCNKAYSYSWGDLDYWGQGTQVTVSS", "polyreactivity (PSR sort gate)": "high polyreactivity"},
      {"sequence": "QVQLVESGGGLVQAGGSLRLSCAASGYIFPGNAMGWYRQAPGKERELVATITDDTSTNYADSVKGRFTISRDNAKNTVYLQMNSLKPEDTAVYYCAADLYYWYPYLYDYWGQGTQVTVSS", "polyreactivity (PSR sort gate)": "low polyreactivity"},
      {"sequence": "QVQLVESGGGLVQAGGSLRLSCAASGYIFPSYAMGWYRQAPGKERELVAAISESGGSTNYSDSVKGRFTISRDYAKNTVYLQLNSLKPEDTAVYYCAAGYYTVPPDMNSWGQGTQVTVSS", "polyreactivity (PSR sort gate)": "low polyreactivity"},
      {"sequence": "QVQLVESGGGLVQAGGSLRLSCAASGYIFPTNAMGWYRPATRKERELLAVITSGGSTYYADSVKGRFTISRDNAKNTVYLLMNSLKPDDTAVYYCAARYQGRYGIYRVLYGYWGQGTQVTVSS", "polyreactivity (PSR sort gate)": "high polyreactivity"},
      {"sequence": "QVQLVESGGGLVQAGGSLRLSCAASGYIFQWYDMGWYRQAPGKERELVAAISVTTGSTYYADSVKGRFTISRDNAKNTVYLQMNSLKPEDTAVYYCAAVSWYRHDMYYWGQGTQVTVSS", "polyreactivity (PSR sort gate)": "low polyreactivity"},
      {"sequence": "QVQLVESGGGLVQAGGSLRLSCAASGYIFQYYPMGWYRQAPGKERELVAAITSGTRTYYADSVKGRFTISRDNAKNTVYLQMNSLKPDDTAGYYCAASPDYSRYWVYAPTRRLGYWGQGTQVTVSS", "polyreactivity (PSR sort gate)": "high polyreactivity"},
      {"sequence": "QVQLVESGGGLVQAGGSLRLSCAASGYIFRSNAMGWYRQAPGKERELVAAISGGGRTNYADSVKGRFTISRDNAKNTVYLQMNSLKPEDTAVYYCAAGGYYQRTRGYWGQATQVTVSS", "polyreactivity (PSR sort gate)": "high polyreactivity"},
      {"sequence": "QVQLVESGGGLVQAGGSLRLSCAASGYIFSKYALGWYRQAPGKERELVASITGRGSRTYYADSVKGRFTISRDNAKNTVYLQMNSLKAEDTAVYYCAADWYGQKTSNRWYFRPGYVYWGQGTQVTVSS", "polyreactivity (PSR sort gate)": "high polyreactivity"},
      {"sequence": "QVQLVESGGGLVQAGGSLRLSCAASGYIFSLYAMGWYRQAPGKERELLADITTSAGSTYYADSVKGRFTISRDNAKNTVYLQMISLKPEDTAVYYCAAAVYGHSYYDYDYWGLGTQVTVSS", "polyreactivity (PSR sort gate)": "low polyreactivity"},
      {"sequence": "QVQLVESGGGLVQAGGSLRLSCAASGYIFSLYGMGWYRQAPGKERELVAAITGSGGGTYADSVKGRFTISRDNAQNTVYLQMKSLKPEDTAVYYCAAGGYRRRFWPIYDYWGQGTQVTVSS", "polyreactivity (PSR sort gate)": "low polyreactivity"},
      {"sequence": "QVQLVESGGGLVQAGGSLRLSCAASGYIFSRNDRGWYRQAPGKERELVARITGSAGSTYYADSVKGRFTISRDNAKNTVYLQMNSLKPEDTAVYYCARRWYTWRKNKYCRMDYWGQGTQVTVSS", "polyreactivity (PSR sort gate)": "low polyreactivity"},
      {"sequence": "QVQLVESGGGLVQAGGSLRLSCAASGYIFSSYAMGWYRQAPGKERELVAAISWTGGTYYADSVKGRFTISRDNAKNTVYLQMNSLNPEDTAVYYCAVRYKRKGSGYRTNAYDYWGQGTQVTVSS", "polyreactivity (PSR sort gate)": "high polyreactivity"},
      {"sequence": "QVQLVESGGGLVQAGGSLRLSCAASGYIFSTYDMGWYRQAPGKERELVATISSSGGSTYYADSVKGRFTISRDIAKNTVYLQMNSLKPEDTAVYYCAADLYLYQYRYEYDYWGQGTQVTVSS", "polyreactivity (PSR sort gate)": "high polyreactivity"},
      {"sequence": "QVQLVESGGGLVQAGGSLRLSCAASGYIFSTYTMGWYRQAPGKERELVATITVSGGSTYYADSVKGRFTISRDNAKNTVYLQMNSLKPEDTAVYYCAALRYTFAGRFDYWGQGTQVTVSS", "polyreactivity (PSR sort gate)": "high polyreactivity"},
      {"sequence": "QVQLVESGGGLVQAGGSLRLSCAASGYIFSYYAMGWYRQAPGKERELVAAITSSGGRTYYADSVKGRFTISRDNAKNTVYLQMNSLKPEDTAVYYCNRDYSSYDTEDYWGQGTQVTVSS", "polyreactivity (PSR sort gate)": "high polyreactivity"},
      {"sequence": "QVQLVESGGGLVQAGGSLRLSCAASGYIFTDKVMGWYIQAPGKERELVAAITYSAASTYYADSVKGRFTISRDNAKNTVYLQMNSLKPEDTAVYYCATEYYIGVNYRGDYWGQGTQVTVSS", "polyreactivity (PSR sort gate)": "low polyreactivity"},
      {"sequence": "QVQLVESGGGLVQAGGSLRLSCAASGYIFTPYAMGWYRQAPGKERELVAAITGSGSSTYYADSVKGRFTISRDNAKNTVYLQMNSLKPEDTAVYYCAADSYGFYGYYYYELEYWGQGTQVTVSS", "polyreactivity (PSR sort gate)": "low polyreactivity"},
      {"sequence": "QVQLVESGGGLVQAGGSLRLSCAASGYIFTRNAMGWYRQAPGKERELVATISSRGGRTYYADSVKGRFTISRDNAKNTVYLQMNSLKPEDTAVYYCAATPWYRTRTYDYWGQGTQVTVSS", "polyreactivity (PSR sort gate)": "high polyreactivity"},
      {"sequence": "QVQLVESGGGLVQAGGSLRLSCAASGYIFVHYVMGWYRQAPGKERELVAAISSSGDRTYYADSVKGRFTISRDNAKNTVYLQMNSMKPEDTAVYYCAARYSDTSTNRYYYWGQGTQVTVSS", "polyreactivity (PSR sort gate)": "high polyreactivity"},
      {"sequence": "QVQLVESGGGLVQAGGSLRLSCAASGYIFVRNAMGWYRQAPGKERELVAAISGSGGSTYYADSVKGRFTISRDNAKNTVYLQMNSLKPEDTAVYYCAADYATVTWRGIAYDYWGQGTQVTVSS", "polyreactivity (PSR sort gate)": "low polyreactivity"},
      {"sequence": "QVQLVESGGGLVQAGGSLRLSCAASGYIFYDNAMGWYRQAPGKDREFVSTYYADSVKGRFTISRDNAKNTVYLQMNSLKPEDTAVYYCAAVYSHEGYCWGQGTQVTVSS", "polyreactivity (PSR sort gate)": "low polyreactivity"},
      {"sequence": "QVQLVESGGGLVQAGGSLRLSCAASGYIFYENAMGWYRQAPGKERELVAAIRFTGGSTYYADSVKGRFTISRDNAKNTVYLQMNSLKPEDTAVYYCSKSYPDTQRYQYPRGWELDYWGQGTQVTVSS", "polyreactivity (PSR sort gate)": "low polyreactivity"},
      {"sequence": "QVQLVESGGGLVQAGGSLRLSCAASGYIFYEYAMGWYRQAPGKERELVAAISRRGGRTYYADSVKGRFTISRDNAKNTVYLQMKSLKPEDTAVYYCATRVIYGHSVGYWGQCTQVTVSS", "polyreactivity (PSR sort gate)": "high polyreactivity"},
      {"sequence": "QVQLVESGGGLVQAGGSLRLSCAASGYIFYFNAMAWYRQAPGKEMELVAVISDRDDSTYYADSVKGRFTISRDNAKNTVYLHMNSLKPEDTAVYYCAADGDTYYNYYHWGQGTQVTVSS", "polyreactivity (PSR sort gate)": "low polyreactivity"},
      {"sequence": "QVQLVESGGGLVQAGGSLRLSCAASGYIFYRNAMGWYRQAPVKEREFVAAISSSGVSTYYADSVKGRFTISRDNAKNTVYLQMNSLKPEDTAVYYCAASYLTWKRRYDYWGQGTQVTVSS", "polyreactivity (PSR sort gate)": "high polyreactivity"},
      {"sequence": "QVQLVESGGGLVQAGGSLRLSCAASGYIIWDYAMGWYRQAPGKEREFVATISRSVGSTYYADSVKGRFTISRDNAKNTVYLQMNSLKPEDTAVYYCAAVTWGEGFDYWGQGTQVTVSS", "polyreactivity (PSR sort gate)": "low polyreactivity"},
      {"sequence": "QVQLVESGGGLVQAGGSLRLSCAASGYILDRNAMGWYIQAPGKEREFVAVISWGGTRTYYADSVKGRFTISRDNAKNTVYLQMNSLKPEDTAVYYCARYPYYYGYAGRYDYWGQGTQVTVSS", "polyreactivity (PSR sort gate)": "high polyreactivity"},
      {"sequence": "QVQLVESGGGLVQAGGSLRLSCAASGYILPHNAMGWSRQAPGKDGEMVAAITSSGGSTYYADSVKGRVTISRDNAKNTVYLQMNSLKPEDTAVYYCNTDQYSPYEYSSFDSWGQGTQVTVSS", "polyreactivity (PSR sort gate)": "low polyreactivity"},
      {"sequence": "QVQLVESGGGLVQAGGSLRLSCAASGYILYANAMGWYRQAPGKERELVASITFGDDSTYYADSVKGRFTISRDNAKNTVYLQMNSLKPEDTAVYYCNADHKVEVEDDYWGQGTQVTVSS", "polyreactivity (PSR sort gate)": "low polyreactivity"},
      {"sequence": "QVQLVESGGGLVQAGGSLRLSCAASGYILYGNTMGWYRQAAGKERELVAVISGGGSTNYADSVKGRFTISRDNAKNTVYLQMNSLKPQDTAVYYCAVKTNQAGYDYWGQGTQVTVSS", "polyreactivity (PSR sort gate)": "low polyreactivity"},
      {"sequence": "QVQLVESGGGLVQAGGSLRLSCAASGYISNAMGWYRQAPGKERELVAAISRSGGSTYYADSVKGRFTISRDNAKNTVYLQMNSLKPEDTAVYYCAGDSTYHARRLDYWGQGTQVTVSS", "polyreactivity (PSR sort gate)": "low polyreactivity"}
    ]}
  ]
}
